Experiments:
Details in all cases: FMN input: 0 or 200 uM; Eterna round: R93 (includes R88 designs)
MS2 coat protein [1] = test: apparent KD of MS2 coat protein, switch ON state; designed switch direction (-1 OFF switch, 1 ON switch): 1; higher = weaker reporter binding
Method in brief: (§1)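 Designed RNA switches were made by on-chip transcription from Illumina sequencing clusters and then titrated with SNAP-549-labelled MS2 coat protein. Twofold steps ran from 0.7 or 1.5 nM to 3 µM, each lasting 0.8–1.5 h early and 10–20 min late, in 100 mM Tris-HCl pH 7.5, 80 mM KCl, 4 mM MgCl2, without or with constant ligand. Apparent KD is the per-design median of normalised cluster binding-curve fits.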

MS2 coat protein [2] = test: apparent KD of MS2 coat protein, switch OFF state (with FMN for OFF switches, without FMN for ON switches); designed switch direction (-1 OFF switch, 1 ON switch): 1; higher = weaker reporter binding
Method in brief: as §1

MS2 coat protein [3] = test: apparent KD of MS2 coat protein, switch ON state; designed switch direction (-1 OFF switch, 1 ON switch): -1; higher = weaker reporter binding
Method in brief: as §1

MS2 coat protein [4] = test: apparent KD of MS2 coat protein, switch OFF state (with FMN for OFF switches, without FMN for ON switches); designed switch direction (-1 OFF switch, 1 ON switch): -1; higher = weaker reporter binding
Method in brief: as §1

Sequence | apparent KD of MS2 coat protein (MS2 coat protein [1]) | apparent KD of MS2 coat protein (MS2 coat protein [2]) | apparent KD of MS2 coat protein (MS2 coat protein [3]) | apparent KD of MS2 coat protein (MS2 coat protein [4])
UUUAGUUGCGGGCAGGAUAUGUAUUAAAAUACAUGAGGAUCACCCAUGUGCGGGUAUAACACCCGACAGAAGGGCCAAUCGCGAC [Laonerce] | 18.3 nM | 305 nM |  | 
UGAGGACAUGAGGAUCACCCAUGUAGGCCACAAUCAGGAUAUGCAUUAAGGUACCUAAGAGUAGAAGGGAUUCGAG [SameState_Neo] | 34.9 nM | 30.8 nM |  | 
AAUAAUUAUAUGGAGGAUAUCGGUAAUAAGACAUGAGGAUCACCCAUGUAAUAAGGUUAAAUAAACGAGAAGGCCAAGGGUGAAA [JR_SS002_Sub005] | 59.7 nM | 234 nM |  | 
AAAAGACAUGAGGAUCACCCAUGUCAAGACAUAGGAGGAUAUGUCAUGAAAAAAGACUUGACAGAAGGCCUUUGUC [SS1 - 51] | 16.7 nM | 17.4 nM |  | 
AAUAGACAUGAGGAUCACCCAUGUGUAUAUGGGAGAGGAUAUACGGGACACAAGGGCGGAGUAGAAGGCUCGAGAC [Same Satate 1] | 68.2 nM | 83.9 nM |  | 
GCAAAACAUGAGGAUCACCCAUGUGAAAAGAAUGUAGGAUAUGGGCUCAGAAAUAGCAGCCCAGAAGGGCGAAGAA [Xequamara] | 21.9 nM | 24.8 nM |  | 
AAGAAACAUGAGGAUCACCCAUGUGAUAAUAUGGGAGGAUAUACGAAGACGAAAGACGAAGUAGAAGGCCUAUGAA [Garnet 45] | 46.9 nM | 83.3 nM |  | 
AAAAAACAUGAGGAUCACCCAUGUAAAAAUAUGGGAGGAUAUACAAACACGAAAGUGAAAGUAGAAGGCCUAAAAA [SS! MT 17] | 19 nM | 85.3 nM |  | 
AAAAGACAUGAGGAUCACCCAUGUGAAAACGUGCGAGGAUAUGUAUGGAAACUAUACUGUACAGAAGGCGCAUGUC [SS1 - 81] | 19.9 nM | 24.3 nM |  | 
GAAAUACAUGAGGAUCACCCAUGUUAGGUGAUUCAAGGAUAUCAAGGUAAAUAAAAACCUUGAGAAGGUGAAUAAA [JR_SS001_Sub205] | 177 nM | 163 nM |  | 
AUAAAACAUGAGGAUCACCCAUGUCCGACAAAUCAAGGAUAUGAUAGCCAAACCAGGCCGUUAGAAGGUGAAAGAA [Edgeza] | 276 nM | 147 nM |  | 
GCCGGUUAUGAGCAGGAUAUGUCACCGCUAACAUGAGGAUCACCCAUGUGAGCAAAAUCGAGGUCACAGAAGGGUUCCGGCAAAA [Disoerce] | 17.8 nM | 41.9 nM |  | 
GAAGAACAUGAGGAUCACCCAUGUGAGAACAUGGGAGGAUAUACGAGGACGAAAGUCAAAGUAGAAGGCCUAAGAG [Garnet 87] | 104 nM | 29.8 nM |  | 
AAGAAACAUGAGGAUCACCCAUGUAAGAUAAACACAGGAUAUGCGAAAAUAAACAAAUAAGCAGAAGGGUGAAAAG [Mat - Same State 1 - Tesla mod - 76] | 15.2 nM | 19.3 nM |  | 
GAAAAACAUGAGGAUCACCCAUGUAAUACAACAUCAGGAUAUUGAUUUUACUAUGUAUUGCAAGAAGGGAUGAAAG [Mat - Same State 1 - Hyphema mod - D100] | 57.2 nM | 42.6 nM |  | 
UAACGCGCAUGCAAGGAUAUGUGCAGAGCUACAUGAGGAUCACCCAUGUGGUUAUGCUAUUGAAAACAGAAGGUGCCCUCGCUCA [Ceties] | 22.4 nM | 16.8 nM |  | 
AGAAAUAAAAGACAGGAUAUCCUUAAGAAAACAUGAGGAUCACCCAUGUAAAAGAAAAUAAAAAGGGAGAAGGGUCAAAAUAAGA [Mat - Same State 2 - JL mod - D80] | 18 nM | 26.2 nM |  | 
AGGAAACAUGAGGAUCACCCAUGUAAAAAUAUGGGAGGAUAUACAAACAGGAAAGUGAGAGUAGAAGGCCUAAAAG [Garnet 19] | 42.4 nM | 231 nM |  | 
GAAAUACAUGAGGAUCACCCAUGUUAGGUGGGUCAAGGAUAUUGAUAUAAAUAAAAAACUCGAGAAGGUGAAUAAA [JR_SS001_Sub201] | 229 nM | 179 nM |  | 
GAAAAACAUGAGGAUCACCCAUGUGAUAACAUGGGAGGAUAUACAAGGACGAUAGUCAAAGUAGAAGGCCUAAAAG [Garnet 61] | 289 nM | 47.9 nM |  | 
GAAAAACAUGAGGAUCACCCAUGUGAUAAUAUGGGAGGAUAUACGAAGACGAAAGUCAAAGUAGAAGGCCUAAAAG [Garnet 36] | 57.5 nM | 81.7 nM |  | 
GAAAAACAUGAGGAUCACCCAUGUAGAAAUAUGGGAGGAUAUACAAAGUCGAAAGACAAAGUAGAAGGCCUAAAAG [Mat - Same State 1 - Eli mod - D2] | 24.6 nM | 67.1 nM |  | 

Sequence | apparent KD of MS2 coat protein (MS2 coat protein [1]) | apparent KD of MS2 coat protein (MS2 coat protein [2]) | apparent KD of MS2 coat protein (MS2 coat protein [3]) | apparent KD of MS2 coat protein (MS2 coat protein [4])
AGAAAUAAAAGGCAGGAUAUCCAAAAGAAAACAUGAGGAUCACCCAUGUAAAAGAAAAAAAAAUGGGAGAAGGGCCAAAUAAAGA [Mat - Same State 2 - Eli mod - D90] | 20.7 nM | 21.4 nM |  | 
AUAAUAAUAAGGUAGGAUAUACUAAAGUAAACAUGAGGAUCACCCAUGUAAAGAAAAAAACUCAUGUAGAAGGGCCAGAAAUAAA [moonwalk 3] | 53.2 nM | 62.3 nM |  | 
AAAAAACAUGAGGAUCACCCAUGUCGAAAGACGUGAGGAUAUGUACAGACUUCGGUCUGUACAGAAGGCACAAAAA [SS1 - 1032] | 24.6 nM | 208 nM |  | 
AACAAUCUAUCUGAGGAUAUCAUGUGAAAGACAUGAGGAUCACCCAUGUUGCAGGAAACUGCUCAUGAGAAGGCAGAUAGAUUGA [SS2: 1126] | 11.5 nM | 28.3 nM |  | 
AAAAAACAUGAGGAUCACCCAUGUGAGAACAUGGGAGGAUAUACGAGGACGAGAGUCAAGGUAGAAGGCCUAAAAG [Garnet 73] | 50.1 nM | 13.6 nM |  | 
AACAAGGCAGGAUAUACAUGAGGAUCACCCAUGUGAGAAUUAAGUGGCGUAACACAAAGUAGAAGGGCCAUGGA [Ruby 5] |  |  | 39.5 nM | 49.9 nM
AAGGGACAUGAGGAUCACCCAUGUUAGGAUAUGCUAUGGAAAAUAAAAUAAAAACAUAGCAGAAGGAACAAAAA [Mat - Exclusion 1 - Eli mod - D36] |  |  | 43.2 nM | 60.5 nM
AAAAGACAUGAGGAUCACCCAUGUGAGGAUAUCGGAAAAGGAAAAAAAAAAAAGAAGACGAGAAGGCACACCAA |  |  | 42.5 nM | 33.8 nM
AGAAUACAUGAGGAUCACCCAUGUGAGGAUAUGCAAAUAAAAAUAAAAUAAAAUAAUUGCAGAAGGCACGAAAG [EX 1 May 23] |  |  | 44.4 nM | 91.2 nM
AAAAAACAUGAGGAUCACCCAUGUGAGGAUAUACUAAACAAAAAAAACAAAAACAAAUGUAGAAGGCACAAAAA [Amethyst 36] |  |  | 19 nM | 23 nM
AAAAAGUGAGGAUAUGGAAAAAAAAAAAAAAAAAAAAAAAACCAGAAGGCACAUGAGGAUCACCCAUGUAAAAA [low kcal] |  |  | 38.6 nM | 30.9 nM
AAAAAGGUAGGAUAUGCUAAAUAACAUGAAGAAUAAAUAAAACAUGAGGAUCACCCAUGUAGAAGGACCAAAAA [Ex 2 Tesla 1] |  |  | 25 nM | 20 nM
ACUAAUGAAGGAUAUACAAACAAAAAAAAAACAAAAAAAAAACAUGAGGAUCACCCAUGUAGAAGGUCAAAAAU [JR_Exc002_Sub1201] |  |  | 22 nM | 20 nM
AAGAGUAGAGGAUAUAUAUGAAAAGAGUCGAAAGACUCAAAACAUGAGGAUCACCCAUGUAGAAGGCUACUCAA [Hyphema Seclusion mod] |  |  | 18.7 nM | 17.5 nM
AACAGGUCAGGAUAUGUGGAAAAAAUAAAAAAAAUAAAAACACAGAAGGGACAUGAGGAUCACCCAUGUAUAUA [May 21] |  |  | 89.4 nM | 53.4 nM
AAAGGGCGAGGAUAUACAUGAGGAUCACCCAUGUAAAAAACAUAAUAAAAGAACUUAUGUAGAAGGCGUCCAAA [Meechl Ex3 2 R2 v2] |  |  | 52.8 nM | 321 nM
AGCUAGUCAGGAUAUACGCAAACGAACGAAGCAGUGAAGGGACAUGAGGAUCACCCAUGUAGAAGGGACUAGCA [Diamond 30] |  |  | 26.8 nM | 75.5 nM
AAUAUGUCAGGAUAUGUGUAAAGAAUAAAAGAAAUAACAACACAGAAGGGACAUGAGGAUCACCCAUGUCAACA [May 33] |  |  | 24.8 nM | 18 nM
AAAAAGUCAGGAUAUACGAAAAAAAAAAAAAAAAAAAAAAAGUAGAAGGGACAUGAGGAUCACCCAUGUAAAAA [Exclusion 4] |  |  | 88.9 nM | 27.1 nM
AACAGUACAGGAUAUACAUGAGGAUCACCCAUGUGAGAAUUAAGUGGCGUACCACAAAGUAGAAGGGUACUGGA [Maslow Revisited] |  |  | 35 nM | 173 nM
GCUUUGCAAGGAUAUACAUGAGGAUCACCCAUGUGAGAGAAAAAAGUGAGAAAGAAAAGUAGAAGGUGCGGAGG [salish99-ex3-120] |  |  | 34.2 nM | 44 nM
AAAAAACAUGAGGAUCACCCAUGUGAGGAUAUCUGUAUCCAAAAGGAAGUGUAGGAUCGGAGAAGGCACUAGGA [Banishment 1 - Jieux - Exclusion 1] |  |  | 36.5 nM | 52.3 nM

— the supplement of paper PMC9170038
